In US20240261333A1 (published 2024):

Legend:
Test in all cases: anti-FLAG co-IP from lysate of N-FLAG B3GNT2 cells, mass spectrometry
ELOC = target: T1, ELOC (human, UniProt Q15369 1-112)
T1 construct: also called NP_001191791.1
Method: (§1) Cells were plated in 10-cm cell culture dishes and grown to 60-80% confluency. For each condition, two biological replicates were harvested for co-IP. Cells were washed with PBS and 4 mL of lysis buffer (20 mM HEPES, 1% Triton X-100, 150 mM NaCl, 1 mM EDTA, and 10% glycerol) containing protease inhibitor cocktail was added. Cells were scraped and lysate was incubated at 4° C. under rotary agitation for 1 h. Lysate was centrifuged at 14,000×g for 10 min at 4° C. Supernatant was transferred to a new tube and an aliquot was taken as the input. […] For Western blots, 10 μg/mL Chicken Anti-FLAG (Aves labs ET-DY100) and IgY control (R&D Systems AB-101-C) antibodies were biotinylated (Thermo Fisher Scientific 90407) and added to the respective conditions. Lysates with antibodies were incubated at 4° C. under rotary agitation overnight. For each mL of lysate, 50 μL of Pierce Protein A/G Magnetic Beads (Mass spectrometry; Thermo Fisher Scientific 88803) or Pierce Streptavidin Magnetic Beads (Western blot; Thermo Fisher Scientific 88817) was washed twice with lysis buffer. Lysates with antibodies were added to the beads and incubated at 4° C. under rotary agitation for 4 h. Beads were washed with lysis buffer 3 times and resuspended in lysis buffer for storage.
(§2) Magnetic beads were resuspended in 100 mM Tris pH 7.8, reduced, alkylated and digested with trypsin at 37° ° C. overnight. This solution was subjected to solid phase extraction to concentrate the peptides and remove unwanted reagents followed by injection onto a Shimadzu HPLC with fraction collector. Eight fractions were collected and after concentration were injected on a Waters NanoAcquity HPLC equipped with a self-packed Aeris 3 μm C18 analytical column 0.075 mm by 20 cm, (Phenomenex). Peptides were eluted using standard reverse-phase gradients. The effluent from the column was analyzed using a Thermo Orbitrap Elite mass spectrometer (nanospray configuration) operated in a data dependent manner for 54 minutes. The resulting fragmentation spectra were correlated against the known database using Proteome Discover 1.4 (Thermo Fisher Scientific).

DNAJA3 = target: T2, DNAJA3 (human, UniProt Q96EY1-2 66-453, limits assumed)
T2 construct: also called NP_001128582.1 (+1)
T2 sequence (looked up): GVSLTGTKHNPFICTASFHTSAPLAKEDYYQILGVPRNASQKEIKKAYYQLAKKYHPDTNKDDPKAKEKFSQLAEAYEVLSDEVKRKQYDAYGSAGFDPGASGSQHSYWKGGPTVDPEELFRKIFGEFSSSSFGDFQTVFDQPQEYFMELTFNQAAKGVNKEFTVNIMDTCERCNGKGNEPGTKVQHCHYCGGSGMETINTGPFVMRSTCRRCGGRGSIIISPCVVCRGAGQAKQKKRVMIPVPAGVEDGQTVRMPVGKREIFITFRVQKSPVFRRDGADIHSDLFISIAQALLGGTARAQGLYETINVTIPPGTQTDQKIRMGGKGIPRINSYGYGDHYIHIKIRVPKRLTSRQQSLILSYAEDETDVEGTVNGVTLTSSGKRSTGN
Method: as §1, §2

ATAD3A = target: T3, ATAD3A (human, UniProt Q9NVI7 2-586)
T3 construct: also called NP_001164006.1 (+2)
T3 sequence (looked up): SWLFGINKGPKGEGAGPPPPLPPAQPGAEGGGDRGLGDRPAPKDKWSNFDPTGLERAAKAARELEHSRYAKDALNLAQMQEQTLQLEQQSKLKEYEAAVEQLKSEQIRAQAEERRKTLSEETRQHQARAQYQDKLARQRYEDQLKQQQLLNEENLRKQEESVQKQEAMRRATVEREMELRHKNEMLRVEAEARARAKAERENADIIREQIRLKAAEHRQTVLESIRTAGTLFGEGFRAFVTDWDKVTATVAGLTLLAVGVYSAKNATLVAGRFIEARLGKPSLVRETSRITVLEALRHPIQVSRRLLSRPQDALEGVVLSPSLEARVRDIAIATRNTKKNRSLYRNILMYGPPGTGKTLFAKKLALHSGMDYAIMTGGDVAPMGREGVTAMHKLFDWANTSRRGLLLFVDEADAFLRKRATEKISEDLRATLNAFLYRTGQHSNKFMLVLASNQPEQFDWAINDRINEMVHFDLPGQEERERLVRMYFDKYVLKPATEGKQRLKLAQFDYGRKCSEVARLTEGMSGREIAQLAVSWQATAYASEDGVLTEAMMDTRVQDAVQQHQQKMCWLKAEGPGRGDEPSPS
Method: as §1, §2

UBTF = target: T4, UBTF (human, UniProt P17480-2 1-727, limits assumed)
T4 construct: also called NP_001070151.1 (+3)
T4 sequence (looked up): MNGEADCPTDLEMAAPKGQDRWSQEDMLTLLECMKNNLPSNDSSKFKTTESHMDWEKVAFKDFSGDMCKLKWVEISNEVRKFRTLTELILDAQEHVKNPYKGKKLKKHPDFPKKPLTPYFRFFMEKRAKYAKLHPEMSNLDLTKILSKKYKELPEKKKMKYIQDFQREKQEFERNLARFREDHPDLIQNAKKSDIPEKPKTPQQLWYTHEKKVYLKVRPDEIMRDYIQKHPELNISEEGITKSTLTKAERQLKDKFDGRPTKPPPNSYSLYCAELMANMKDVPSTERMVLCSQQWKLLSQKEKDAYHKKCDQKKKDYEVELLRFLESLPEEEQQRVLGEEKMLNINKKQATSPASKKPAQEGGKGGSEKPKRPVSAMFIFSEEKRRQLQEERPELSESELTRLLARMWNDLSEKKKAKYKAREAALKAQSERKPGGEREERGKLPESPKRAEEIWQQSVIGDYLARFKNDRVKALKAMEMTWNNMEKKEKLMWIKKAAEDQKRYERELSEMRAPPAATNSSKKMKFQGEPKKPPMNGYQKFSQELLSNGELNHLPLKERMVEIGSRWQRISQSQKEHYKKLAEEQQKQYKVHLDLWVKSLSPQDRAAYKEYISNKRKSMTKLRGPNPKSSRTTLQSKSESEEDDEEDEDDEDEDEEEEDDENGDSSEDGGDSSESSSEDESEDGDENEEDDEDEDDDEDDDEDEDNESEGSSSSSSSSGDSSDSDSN
Method: as §1, §2

Measured: co-IP mass spectrometry count

T1 sequence (Q15369 whole entry): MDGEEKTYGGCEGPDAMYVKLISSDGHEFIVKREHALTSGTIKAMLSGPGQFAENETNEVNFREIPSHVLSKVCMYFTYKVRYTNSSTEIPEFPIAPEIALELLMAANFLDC

B1: N-terminal FLAG tagged B3GNT2 (enzyme, human, UniProt Q9NY97 1-397, looked up)
chain: MSVGRRRIKLLGILMMANVFIYFIMEVSKSSSQEKNGKGEVIIPKEKFWKISTPPEAYWNREQEKLNRQYNPILSMLTNQTGEAGRLSNISHLNYCEPDLRVTSVVTGFNNLPDRFKDFLLYLRCRNYSLLIDQPDKCAKKPFLLLAIKSLTPHFARRQAIRESWGQESNAGNQTVVRVFLLGQTPPEDNHPDLSDMLKFESEKHQDILMWNYRDTFFNLSLKEVLFLRWVSTSCPDTEFVFKGDDDVFVNTHHILNYLNSLSKTKAKDLFIGDVIHNAGPHRDKKLKYYIPEVVYSGLYPPYAGGGGFLYSGHLALRLYHITDQVHLYPIDDVYTGMCLQKLGLVPEKHKGFRTFDIEEKNKNNICSYVDLMLVHSRKPQEMIDIWSQLQSAHLKC
notes: Bait of the co-IP; pulled down from cell lysate with mouse anti-FLAG antibody; also called N-FLAG B3GNT2; N-term FLAG; not shown: N-terminal FLAG tag
0: ELOC | DNAJA3 | ATAD3A | UBTF
